Reference: publication PMC4713147

Test system: H-NS (Escherichia coli)
Experiment: EMSA
Conditions: apparent Kd; 200 pM DNA; EMSA: H-NS 0-500 nM, 200 pM 32P-labelled DNA, 4% polyacrylamide gel run at 4 C; buffer, salt and pH not stated (as in ref 99)

Substance | Kd
GC rich region of pBR322 | 200 nM
bglG DRE (bglB primer pair) | 10 nM
